This series deals with the molecule itself. Kind of series: cryo-EM structure.

B1: GsuCas4/Cas1 (Geobacter sulfurreducens type I-G Cas4/Cas1 natural fusion), tag cleaved (natural protein)
chain: MAETDGSIPLIPVRMLNEHVYCPRLAYLMWVQGEFSHNEFTVDGVIRHRRVDAGGGVLPSETQEDSRIHARSVSLSSERLGITAKIDLVEGEGAYVSPVDYKRGKRPHVAGGAYEPERVQLCAQGLLLREHGFASDGGALYFVASRERVPVAFDDELIGRTLAAIDEMGRTALSGTMPPPLEDSPKCPRCSLVGICLPDEVRFLSHLSVEPRPIIPADGRGLPLYVQSPKAYVRKDGDCLVIEEERVRVAEARLGETSQVALFGNATLTTAALHECLRREIPVTWLSYGGWFMGHTVSTGHRNVETRTYQYQRSFDPETCLNLARRWIVAKIANCRTLLRRNWRGEGDEAKAPPGLLMSLQDDMRHAMRAPSLEVLLGIEGASAGRYFQHFSRMLRGGDGEGMGFDFTTRNRRPPKDPVNALLSFAYAMLTREWTVALAAVGLDPYRGFYHQPRFGRPALALDMMEPFRPLIADSTVLMAINNGEIRTGDFVRSAGGCNLTDSARKRFIAGFERRMEQEVTHPIFKYTISYRRLLEVQARLLTRYLSGEIPAYPNFVTR
As to B1, the “stoichiometry N” value turned out to be 2.

B2: GsuCas2 (Geobacter sulfurreducens Cas2), tag cleaved (natural protein)
chain: MEHLYIVSYDIRNQRRWRRLFKTMHGFGCWLQLSVFQCRLDRIRIIKMEAAINEIVNHAEDHVLILDLGPAENVKPKVSSIGKTFDPILRQAVIV
As to B2, the “stoichiometry N” value was found to be 2.

(Values after paper PMC9164213 (Nature, 2021).)
